According to patent US20040229289A1, “Antigen binding peptides (abtides) from peptide libraries” (Cytogen Corporation, priority 1994, published 2004):
Where no end group is shown, it is not given here.

T1: biotinylated 7E11-9.5 mimetope peptide (not fully specified (N-terminus); printed as Biotin-LYANPGMYSRLHSPA-NH2)
T1 peptide: LYANPGMYSRLHSPA-NH2

T2: mimetope peptide 7E11-9.5 (not fully specified)
T2 peptide: LYANPGMYSRLHSPA

T3: PEM peptide (human)
T3 peptide: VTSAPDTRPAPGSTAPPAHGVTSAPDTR

B1: 7E11-C5 abtide clone 14 (peptide)
peptide: GIINANDPLPFWFMSPYTPGPAPIDINASRALVSNESG
notes: tested afterwards as synthetic 38-residue peptide (dot blot, ELISA, sandwich assay)
B2: 7E11-C5 abtide clone 17 (peptide)
peptide: DLSRNLDFGRFLLYNAYVPGFTPTFISLTAEHLSSPKG
notes: tested afterwards as synthetic 38-residue peptide
B3: 7E11-C5 abtide clone 15 (peptide)
peptide: CGRAYCLSGNYNIFGALFPGVSTPYADVGHDDAQSWRR
notes: as for B2

Assays:
[1] = test system: biotinylated 7E11-9.5 mimetope peptide; assay: Dot blot: spotted 7E11-C5 abtides probed with biotinylated mimetope peptide; assay type: binding; conditions: 1 μL of 1 mg/mL abtide spotted on nitrocellulose; 0.1 mg/mL mimetope; FIG. 4
Method: (§1) In some cases, these abtides were used in a dot blot experiment. In those cases, 1 μL of a 1 mg/mL solution of the 38-residue abtides was spotted onto nitrocellulose (0.2 μm or 0.45 μm, Schleicher & Schuell, Keene, NH) strips or circles. After drying (about 1/2 hour), the nitrocellulose was blocked for 1 hour in a solution of 1% BSA in PBS. The nitrocellulose was then allowed to incubate in approximately 5 mL of a solution of 0.1 mg/mL of a biotinylated 7E11-9.5 mimetope peptide (biotin-LYANPGMYSRLHSPA). This mimetope peptide was one of those described in Section 6.1.1 above that were synthesized based upon the nine peptides that were identified in the screening of Section 6.1.1 above. After an hour, the nitrocellulose was washed approximately 5 times with a solution of 1% BSA in PBS. A 1:2000 dilution of Extravidin-Alkaline Phosphatase (4,250 units/mL) (Sigma, St. Louis, Mo.) in PBS was then added and allowed to incubate for 1 hour, after which the nitrocellulose was again washed extensively. Finally, a solution of 5-bromo-4-chloro-3-indolyl phosphate (0.15 mg/mL) and nitro blue tetrazolium (0.3 mg/mL) (Sigma, St Louis, Mo.) (BCIP/NBT) was added as an enzyme substrate. Color was allowed to develop […].
(§2) In FIG. 4, the 7E11-C5 abtides known as clone 14, clone 17, clone 15, clone 16, and clone 13 were tested for their ability to bind the biotinylated 7E11-9.5 mimetope peptide. Also tested, as a positive control, was the monoclonal antibody 7E11-C5. 7E11-C5 was spotted onto the region marked 351 in FIG. 4.

[2] = biological target: T1, biotinylated 7E11-9.5 mimetope peptide; assay: dot blot, synthetic abtide spotted on nitrocellulose, biotinylated mimetope in solution
Method: as §1, with “(biotin-[…]).” for “(biotin-LYANPGMYSRLHSPA).”
as §2

[3] = biological target: T2, mimetope peptide 7E11-9.5; assay: phage panning of TSAR-9 library on plate-bound 7E11-9.5 peptide
Method: Next, the mimetope peptide was used to isolate abtides from a peptide library. Fifty to one hundred microliters of the solution of this peptide was used to coat the wells of a 96-well plate, the wells were blocked with 0.5% BSA in PBS, and the wells were used for screening. An aliquot of the TSAR-9 random phage library (containing approximately 3×10¹⁰ phage particles) was used as in the initial screening, and 4 rounds of screening were performed. After the first two rounds, the phage were amplified. Two more rounds of screening were then performed. By this procedure, phage from the TSAR-9 library that expressed peptides capable of binding to the 7E11-9.5 mimetope peptide were identified and isolated. The peptides containing the binding domains of these phage are abtides and were discovered to mimic the binding specificities of monoclonal antibody 7E11-C5. These abtides are termed “7E11-C5 abtides.”

PEM peptide [4] = biological target: T3, PEM peptide; assay: phage panning on PEM peptide, DC43 library, acid eluted
Method: (§3) A peptide comprising this sequence was synthesized and used to isolate abtides from TSAR peptide libraries by methods analogous to those described above. In these experiments, the specific TSAR libraries used were R26, D38 and DC43. See FIGS. 10-12 for description of these libraries. Phage bound to PEM were eluted by either standard acid elution methods, stringent acid elution methods where phage were incubated with the PEM peptide for only 10 minutes prior to washing and elution, or were eluted using excess PEM peptide. Phage from each library were isolated that express peptides capable of binding to PEM.

PEM peptide [5] = biological target: T3, PEM peptide; assay: phage panning on PEM peptide, D38 library, eluted with excess PEM peptide
Method: as §3

Molecule | binding result [2] | binding result [3] | binding result (PEM peptide [4]) | other results
CGRAYCLSGNYNIFGALFPGVSTPYADVGHDDAQSWRR [clone 15] |  |  |  | binding of biotinylated 7E11-9.5 mimetope peptide in dot blot [1]: bound the mimetope
DLSRNLDFGRFLLYNAYVPGFTPTFISLTAEHLSSPKG [clone 17] |  |  |  | binding of biotinylated 7E11-9.5 mimetope peptide in dot blot [1]: bound the mimetope
B1 | binds | binds |  | 
B2 | binds | binds |  | 
B3 | binds | binds |  | 
EEKQGGRWSTMMPRPWCHEGGCGFLYYDAMTKPKTPPIMRTAA (acid eluted) [MA-8] |  |  | binds | 
LPRPFDDASWKLRAVKESPDGCGFGSPLLFPPYSGLPTFSSCD (acid eluted) [MA-21] |  |  | binds | 
GSFESARGVTCIGNHSIGAHGCGPLRSYASFNRGSGRRH (acid eluted) [V22] |  |  | binds | 
IDWNWLERGQHNRGYLHSFPDAKSQPTRGPRVAPNGND (eluted with excess PEM peptide) [MP-20] |  |  |  | binding result (PEM peptide [5]): binds
GRGSDMREHWPWSMPLILDQHANDPSPRAQSHYYSHPF (eluted with excess PEM peptide) [MP-30] |  |  |  | binding result (PEM peptide [5]): binds
